Test results: US7052898B2, “Thermostable isomerase and use hereof, in particular for producing tagatose” (Bioneer A/S, priority 2001, dated 2006)
Where two headings read alike, the source gives them in different places.

Assays:
[1] = tested on: L-arabinose isomerase from T. mathranii; assay: Metal ion requirement: reactivation of EDTA-dialysed enzyme; assay type: biochemical, Thermoanaerobacter mathranii; conditions: enzyme previously dialysed against 5 mM EDTA, metal salt added
Procedure: (§1) Enzyme sample, 10-50 μl, was mixed with 950 μl of assay reagent and incubated at 65° C. for 60 min.

[2] = cited from earlier work
[3] = tested on: Aerobacter aerogenes L-arabinose isomerase; conditions: read-out: Km for L-arabinose; Reference 1: Yamanaka and Wood (1966); cited from earlier work
[4] = tested on: Escherichia coli L-arabinose isomerase; conditions: read-out: Km for L-arabinose; Reference 3: Patrick and Lee (1968); cited from earlier work
[5] = tested on: Lactobacillus plantarum L-arabinose isomerase; conditions: read-out: Km for L-arabinose; Reference 4: Heath et al. (1958); cited from earlier work
[6] = tested on: Lactobacillus gayonii L-arabinose isomerase; conditions: read-out: Km for L-arabinose; Reference 5: Nakamatu and Yamanaka (1969); cited from earlier work
[7] = tested on: Mycobacterium smegmatis L-arabinose isomerase; conditions: read-out: Km for L-arabinose; Reference 6: J. Bacteriol. 133: 413-414 (1978); cited from earlier work
[8] = substrate: OC1OC[C@H](O)[C@H](O)[C@H]1O; assay: purified protein, by the assay type; conditions: other: apparent Km; T. mathranii enzyme produced in E. coli; pH 6.9; 65.0 °C
[9] = Temperature dependence, D-galactose assay; assay type: biochemical; conditions: temperature range of about 60-75° C.
Procedure: as §1
(§2) The obtained concentrations of the ketoses L-ribulose, D-tagatose or D-fuculose, respectively, were determined by the cysteine-carbazol-sulfuric acid method (Dische, Z. and Borenfreund, E. (1951) J. Biol. Chem. 192: 583-587). Samples were incubated at room temperature for 60 min and the absorbance at 560 nm was measured in a microplate reader. Standard curves showing the colour response of 0-5 mM ketose were made with D-tagatose and D-ribulose, since L-ribulose was not commercially available. (No standard curve was obtained for D-fuculose which was not commercially available.)

[10] = pH dependence, D-galactose assay; assay type: biochemical; conditions: D-galactose assays at pH 4, 5, 6, 7, 8 and 9
Procedure: as §1, §2
The buffer used for these assays was a mixture of 25 mM acetic acid, 25 mM 2-[N-morpholino]ethanesulfonic acid (MES), 5 mM MnCl2, and 25 mM tris[hydroxymethyl]-aminomethane (TRIS), which was titrated with HCl or NaOH.

[11] = Substrate specificity: D-galactose activity relative to L-arabinose activity; assay type: biochemical; conditions: molar ratio of keto-sugar, substrate 0.5 M, pH 6.9, 65° C.
Procedure: as §1, §2
The ratio was calculated from the cysteine-carbazol-sulfuric acid colour responses and the standard curves generated with ribulose and tagatose, respectively.

[12] = Substrate specificity: D-fucose colour response relative to L-arabinose; assay type: biochemical; conditions: 0.5 M D-fucose, cysteine-carbazol-sulfuric acid method
Procedure: as §1, §2

[13] = Substrate specificity: other aldo-hexoses, aldo-pentoses and deoxy-sugar; assay type: biochemical
Procedure: as §1, §2

[14] = Bioconversion of D-galactose to D-tagatose with free enzyme; assay type: biochemical; conditions: 65° C.
Procedure: as §2
Control samples without enzyme were treated similarly. Periodically, samples were taken and the concentration of D-tagatose was determined by the cystein-carbazol-sulfuric acid method as described above. The results are shown in Table 2.2A (30% D-galactose) and 2.2B (60% D-galactose).

[15] = end-product inhibition; cited from earlier work
[16] = initial D-galactose 30% (1.67 M), pH 6.9, 0 h
[17] = initial D-galactose 30% (1.67 M), pH 6.9, 24 h
[18] = initial D-galactose 30% (1.67 M), pH 6.9, 48 h
[19] = initial D-galactose 30% (1.67 M), pH 6.9, 72 h
[20] = initial D-galactose 60% (3.33 M), pH 6.9, 0 h
[21] = initial D-galactose 60% (3.33 M), pH 6.9, 24 h
[22] = initial D-galactose 60% (3.33 M), pH 6.9, 48 h
[23] = initial D-galactose 60% (3.33 M), pH 6.9, 72 h

Question: For `O=S(=O)([O-])[O-].[Fe+2]` [FeSO4], which “restored L-arabinose isomerase activity” value [1] is on record?
Answer: The value was 76%.

Question: Which “amount of ketose at equilibrium” value ([2]; 10° C.) does the source give for Lactobacillus plantarum here?
Answer: The value was 10%.

Question: What about the “amount of ketose at equilibrium” value ([2]; 25° C.) of the same molecule?
Answer: Its value is 14%.

Question: And the “amount of ketose at equilibrium” value ([2]; 53° C.)?
Answer: Its value is 16%.

Question: With `OC1OC[C@H](O)[C@H](O)[C@H]1O` (stereo partly drawn) [L-arabinose] as the molecule, how does the Km [3] read?
Answer: The Km was 33 mM.

Question: And the Km [4]?
Answer: The Km was 60 mM.

Question: And the Km [5]?
Answer: Its Km is 28 mM.

Question: What about the Km [6] of the same molecule?
Answer: The Km was 55 mM.

Question: What about the Km [7] of the same molecule?
Answer: Its Km is roughly 30 mM.

Question: For `[Cl][Mn][Cl]` [MnCl2], which “restored L-arabinose isomerase activity” value [1] is on record?
Answer: Its value is 100%.

B1: Thermoanaerobacter mathranii DSMZ 11426 L-arabinose isomerase (AraA), wild type, SEQ ID NO:2, produced in E. coli (Thermoanaerobacter mathranii subsp. … (protein)
chain: MQTKKKPQIGFLGIMQELYDDMLPGITERQEKYAREVIEQLQDVADFHFPKAAKNRQDIEHIVKEFNEKDLDGIMIVMLTYGPATNIVNALRNNKLPIMLANIQPVPTVTEDWDMGDLTYNQGVHGAQDTANAILRMGIKCPIITEEWHSEEFKKFVGDWAKAVQTIKALRNMKIAQFGRMHGMYDILGDDAAFTRKIGPQINQEYIGEVYRYMETATEEEINAVIEENRKNFYIDPNLSEESHRYAARLQIGFKKFLINKGYDGFTAHFDVFKGDGRFKQIPMMAASNLMAEGYGYAAEGDAVTASLVAAGHVLIGDAHFTEMYAMDFKRNSILMSHMGEGNWKIARKDRPIKLIDRELGIGKLDNPPTIVFMAQPGPATLVSLVSLEGERYRLVVSKGEILDTEEAKYIEMPYFHFRPSTGVKACLDGWLTNGGTHHECLNLGDNTRRWKILCNLLDIEYVEV
Question: Which Km [8] does the source give for B1 here?
Answer: The Km was 80 mM and ˜80 mM.

B2: L-arabinose isomerase from T. mathranii: L-arabinose isomerase (araA gene product, 465 amino acid residues) of Thermoanaerobacter mathranii DSMZ 11426 produced in E. coli; used as cell extract (protein)
chain: MQTKKKPQIGFLGIMQELYDDMLPGITERQEKYAREVIEQLQDVADFHFPKAAKNRQDIEHIVKEFNEKDLDGIMIVMLTYGPATNIVNALRNNKLPIMLANIQPVPTVTEDWDMGDLTYNQGVHGAQDTANAILRMGIKCPIITEEWHSEEFKKFVGDWAKAVQTIKALRNMKIAQFGRMHGMYDILGDDAAFTRKIGPQINQEYIGEVYRYMETATEEEINAVIEENRKNFYIDPNLSEESHRYAARLQIGFKKFLINKGYDGFTAHFDVFKGDGRFKQIPMMAASNLMAEGYGYAAEGDAVTASLVAAGHVLIGDAHFTEMYAMDFKRNSILMSHMGEGNWKIARKDRPIKLIDRELGIGKLDNPPTIVFMAQPGPATLVSLVSLEGERYRLVVSKGEILDTEEAKYIEMPYFHFRPSTGVKACLDGWLTNGGTHHECLNLGDNTRRWKILCNLLDIEYVEV
modifications: Thermoanaerobacter matrahnii, araA sequence
notes: used as cell extract
Question: With B2 as the molecule, how does the “share of the maximum activity retained” value [9] read?
Answer: Its value is no less than 70%.

Question: What about the “pH of highest activity” value [10] of the same molecule?
Answer: Its value is 8.

Question: What about the “D-galactose activity as percent of the L-arabinose activity” value [11] of the same molecule?
Answer: Its value is 21%.

Question: What about the “colour response with D-fucose as percent of the response with L-arabinose” value [12] of the same molecule?
Answer: The value was 46%.

Question: What about the “enzyme activity with D-arabinose” value ([13]; substrate D-arabinose) of the same molecule?
Answer: Its value is “No significant enzyme activity”.

Question: And the “enzyme activity with D-glucose” value ([13]; substrate D-glucose)?
Answer: The value was “No significant enzyme activity”.

Question: And the “enzyme activity with D-mannose” value ([13]; substrate D-mannose)?
Answer: The value was “No significant enzyme activity”.

Question: What about the “enzyme activity with D-ribose” value ([13]; substrate D-ribose) of the same molecule?
Answer: Its value is “No significant enzyme activity”.

Question: And the “enzyme activity with D-xylose” value ([13]; substrate D-xylose)?
Answer: The value was “No significant enzyme activity”.

Question: And the “enzyme activity with L-fucose” value ([13]; substrate L-fucose)?
Answer: Its value is “No significant enzyme activity”.

Question: What about the “enzyme activity with L-ribose” value ([13]; substrate L-ribose) of the same molecule?
Answer: The value was “No significant enzyme activity”.

Question: What about the “Conc. of D-tagatose” value [14, 16] of the same molecule?
Answer: Its value is 0 mM.

Question: And the Percent bioconversion [14, 16]?
Answer: Its Percent bioconversion is 0.

Question: What about the “Conc. of D-tagatose” value [14, 17] of the same molecule?
Answer: Its value is 427 mM.

Question: And the Percent bioconversion [14, 17]?
Answer: The Percent bioconversion was 25.

Question: And the “Conc. of D-tagatose” value [14, 18]?
Answer: Its value is 450 mM.

Question: And the Percent bioconversion [14, 18]?
Answer: The Percent bioconversion was 26.

Question: What about the “Conc. of D-tagatose” value [14, 19] of the same molecule?
Answer: Its value is 422 mM.

Question: And the Percent bioconversion [14, 19]?
Answer: Its Percent bioconversion is 25.

Question: What about the “Conc. of D-tagatose” value [14, 20] of the same molecule?
Answer: The value was 0 mM.

Question: And the Percent bioconversion [14, 20]?
Answer: Its Percent bioconversion is 0.

Question: And the “Conc. of D-tagatose” value [14, 21]?
Answer: Its value is 462 mM.

Question: And the Percent bioconversion [14, 21]?
Answer: The Percent bioconversion was 14.

Question: And the “Conc. of D-tagatose” value [14, 22]?
Answer: Its value is 542 mM.

Question: What about the Percent bioconversion [14, 22] of the same molecule?
Answer: The Percent bioconversion was 16.

Question: What about the “Conc. of D-tagatose” value [14, 23] of the same molecule?
Answer: The value was 622 mM.

Question: And the Percent bioconversion [14, 23]?
Answer: Its Percent bioconversion is 19.

B3: β-glycosidase from Sulfolobus solfataricus: extremely thermostable β-glycosidase from the thermoacidophilic archaeon Sulfolobus solfataricus, used as lactase (protein, UniProt P22498 1-489, looked up)
Beta-galactosidase: MYSFPNSFRFGWSQAGFQSEMGTPGSEDPNTDWYKWVHDPENMAAGLVSGDLPENGPGYWGNYKTFHDNAQKMGLKIARLNVEWSRIFPNPLPRPQNFDESKQDVTEVEINENELKRLDEYANKDALNHYREIFKDLKSRGLYFILNMYHWPLPLWLHDPIRVRRGDFTGPSGWLSTRTVYEFARFSAYIAWKFDDLVDEYSTMNEPNVVGGLGYVGVKSGFPPGYLSFELSRRAMYNIIQAHARAYDGIKSVSKKPVGIIYANSSFQPLTDKDMEAVEMAENDNRWWFFDAIIRGEITRGNEKIVRDDLKGRLDWIGVNYYTRTVVKRTEKGYVSLGGYGHGCERNSVSLAGLPTSDFGWEFFPEGLYDVLTKYWNRYHLYMYVTENGIADDADYQRPYYLVSHVYQVHRAINSGADVRGYLHWSLADNYEWASGFSMRFGLLKVDYNTKRLYWRPSALVYREIATNGAITDEIEHLNSVPPVKPLRH
Question: Which results are given for B3?
Answer: inhibition by galactose [15]: not to be inhibited; inhibition by glucose [15]: only moderately inhibited
